Measurements from US20240091361A1, “T CELL RECEPTORS TARGETING RAS MUTATIONS AND USES THEREOF” (MEMORIAL SLOAN-KETTERING CANCER CENTER, priority 2021, published 2024).

How the values were obtained:
[1] = target: T1, DCAF7 peptide on HLA-A*11:01 (human); test: cytokine release
T1 peptide: ASVGADGSVR

[2] = target: T2, ELP2 peptide on HLA-A*11:01 (human); test: cytokine release
T2 peptide: VSAAADSAVR

[3] = target: T3, TAF6 peptide on HLA-A*11:01 (human); test: cytokine release
T3 peptide: GATTADGKGK

[4] = target: T4, PRP4 peptide on HLA-A*11:01 (human); test: cytokine release
T4 peptide: ASCAADGSVK

[5] = target: T5, KRAS wild type (10-mer) peptide on HLA-A*11:01 (human); test: cytokine release
T5 peptide: VVVGAGGVGK

[6] = target: T6, KI26A peptide on HLA-A*11:01 (human); test: cytokine release
T6 peptide: PVAGPDGLSK

[7] = target: T7, INO80 peptide on HLA-A*11:01 (human); test: cytokine release
T7 peptide: SSLAPDSLVR

[8] = target: T8, FRPD4 peptide on HLA-A*11:01 (human); test: cytokine release
T8 peptide: KSKLADGEGK

[9] = target: T9, FRPD1 peptide on HLA-A*11:01 (human); test: cytokine release
T9 peptide: KVAAADGPAR

[10] = target: T10, TUTLA (also listed as SEQ ID NO 134) peptide on HLA-A*11:01 (human); test: cytokine release
T10 peptide: ISQGADGRGK

[11] = target: T11, GEM (also listed as SEQ ID NOs 82, 106, 130, 141) peptide on HLA-A*11:01 (human); test: cytokine release
T11 peptide: AVFGAGGVGK

[12] = target: T12, KRAS G12D (10-mer; the same sequence in NRAS G12D and HRAS G12D) peptide on HLA-A*11:01 (human); test: multimer staining
T12 peptide: VVVGADGVGK

B1: TCR 5 (TCR, V domains shown)
Valpha: GEDVEQSLFLSVREGDSSVINCTYTDSSSTYLYWYKQEPGAGLQLLTYIFSNMDMKQDQRLTVLLNKKDKHLSLRIADTQTGDSAIYFCAERDAGNNRKLIWGLGTSLAVNP
Vbeta: GAGVSQSPRYKVAKRGQDVALRCDPISGHVSLFWYQQALGQGPEFLTYFQNEAQLDKSGLPSDRFFAERPEGSVSTLKIQRTQQEDSAVYLCASSLEGGDTQYFGPGTRLTVL
B1: no recognition [1]; no recognition [2]; no recognition [3]. B1: no recognition [4]; no recognition [5]; no recognition [6]. B1: no recognition [7]; no recognition [8]; no recognition [9]. B1: no recognition [10]; no recognition [11]; recognises [12].
